Data taken from US20100129861.

Target: 43S complexes containing 40S subunits and eIFs 2/3/1/1A

B1: DHX29 (purified native DHX29, DExH-box helicase) (protein)
chain: MGGKNKKHKAPAAAVVRAAVSASRAKSAEAGIAGEAQSKKPVSRPATAAAAAAGSREPRVKQGPKIYSFNSTNDSSGPANLDKSILKVVINNKLEQRIIGVINEHKKQNNDKGMISGRLTAKKLQDLYMALQAFSFKTKDIEDAMTNTLLYGGDLHSALDWLCLNLSDDALPEGFSQEFEEQQPKSRPKFQSPQIQATISPPLQPKTKTYEEDPKSKPKKEEKNMEVNMKEWILRYAEQQNEEEKNENSKSLEEEEKFDPNERYLHLAAKLLDAKEQAATFKLEKNKQGQKEAQEKIRKFQREMETLEDHPVFNPAMKISHQQNERKKPPVATEGESALNFNLFEKSAAATEEEKDKKKEPHDVRNFDYTARSWTGKSPKQFLIDWVRKNLPKSPNPSFEKVPVGRYWKCRVRVIKSEDDVLVVCPTILTEDGMQAQHLGATLALYRLVKGQSVHQLLPPTYRDVWLEWSDAEKKREELNKMETNKPRDLFIAKLLNKLKQQQQQQQQHSENKRENSEDPEESWENLVSDEDFSALSLESANVEDLEPVRNLFRKLQSTPKYQKLLKERQQLPVFKHRDSIVETLKRHRVVVVAGETGSGKSTQVPHFLLEDLLLNEWEASKCNIVCTQPRRISAVSLANRVCDELGCENGPGGRNSLCGYQIRMESRACESTRLLYCTTGVLLRKLQEDGLLSNVSHVIVDEVHERSVQSDFLLIILKEILQKRSDLHLILMSATVDSEKFSTYFTHCPILRISGRSYPVEVFHLEDIIEETGFVLEKDSEYCQKFLEEEEEVTINVTSKAGGIKKYQEYIPVQTGAHADLNPFYQKYSSRTQHAILYMNPHKINLDLILELLAYLDKSPQFRNIEGAVLIFLPGLAHIQQLYDLLSNDRRFYSERYKVIALHSILSTQDQAAAFTLPPPGVRKIVLATNIAETGITIPDVVFVIDTGRTKENKYHESSQMSSLVETFVSKASALQRQGRAGRVRDGFCFRMYTRERFEGFMDYSVPEILRVPLEELCLHIMKCNLGSPEDFLSKALDPPQLQVISNAMNLLRKIGACELNEPKLTPLGQHLAALPVNVKIGKMLIFGAIFGCLDPVATLAAVMTEKSPFTTPIGRKDEADLAKSALAMADSDHLTIYNAYLGWKKARQEGGYRSEITYCRRNFLNRTSLLTLEDVKQELIKLVKAAGFSSSTTSTSWEGNRASQTLSFQEIALLKAVLVAGLYDNVGKIIYTKSVDVTEKLACIVETAQGKAQVHPSSVNRDLQTHGWLLYQEKIRYARVYLRETTLITPFPVLLFGGDIEVQHRERLLSIDGWIYFQAPVKIAVIFKQLRVLIDSVLRKKLENPKMSLENDKILQIITELIKTENN
In the case of B1, the NTPase activity is reported as “DHX29's NTPase activity was strongly stimulated by 43S complexes, whereas stimulation by single-stranded RNA was low”.
